B1: Type IV methyl-directed restriction enzyme EcoKMcrB subunit (Escherichia coli (strain K12)), P15005 (parent)
chain: MESIQPWIEKFIKQAQQQRSQSTKDYPTSYRNLRVKLSFGYGNFTSIPWFAFLGEGQEASNGIYPVILYYKDFDELVLAYGISDTNEPHAQWQFSSDIPKTIAEYFQATSGVYPKKYGQSYYACSQKVSQGIDYTRFASMLDNIINDYKLIFNSGKSVIPPMSKTESYCLEDALNDLFIPETTIETILKRLTIKKNIILQGPPGVGKTFVARRLAYLLTGEKAPQRVNMVQFHQSYSYEDFIQGYRPNGVGFRRKDGIFYNFCQQAKEQPEKKYIFIIDEINRANLSKVFGEVMMLMEHDKRGENWSVPLTYSENDEERFYVPENVYIIGLMNTADRSLAVVDYALRRRFSFIDIEPGFDTPQFRNFLLNKKAEPSFVESLCQKMNELNQEISKEATILGKGFRIGHSYFCCGLEDGTSPDTQWLNEIVMTDIAPLLEEYFFDDPYKQQKWTNKLLGDS
partner: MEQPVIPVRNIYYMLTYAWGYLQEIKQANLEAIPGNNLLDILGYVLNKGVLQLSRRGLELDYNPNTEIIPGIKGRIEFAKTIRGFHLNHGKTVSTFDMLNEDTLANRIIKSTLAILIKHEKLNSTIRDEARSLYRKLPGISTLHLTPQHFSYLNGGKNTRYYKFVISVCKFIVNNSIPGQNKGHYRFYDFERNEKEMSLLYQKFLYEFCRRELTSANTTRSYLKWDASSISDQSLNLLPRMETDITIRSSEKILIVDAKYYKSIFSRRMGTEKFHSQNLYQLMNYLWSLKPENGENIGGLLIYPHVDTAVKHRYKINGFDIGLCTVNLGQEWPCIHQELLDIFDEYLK

Variants of: B1
Conditions: with mcrc_ecoli mcrC

| effect of a mutation on the interaction | Variant |
| --- | --- |
| disrupting interaction strength | MESIQPWIEKFIKQAQQQRSQSTKDYPTSYRNLRVKLSFGYGNFTSIPWFAFLGEGQEASNGIYPVILYYKDFDELVLAYGISDTNEPHAQWQFSSDIPKTIAEYFQATSGVYPKKYGQSYYACSQKVSQGIDYTRFASMLDNIINDYKLIFNSGKSVIPPMSKTESYCLEDALNDLFIPETTIETILKRLTIKKNIILQGPPGVGKTFVARRLAYLLTGEKAPQRVNMVQFHQSYSYEDFIQGYRPNGVGFRRKDGIFYNFCQQAKEQPEKKYIFIIDEINRANLSKVFGEVMMLMEHDKRGENWSVPLTYSENDEERFYVPENVYIIGLMNTADRSLAVVDYALRRAFSFIDIEPGFDTPQFRNFLLNKKAEPSFVESLCQKMNELNQEISKEATILGKGFRIGHSYFCCGLEDGTSPDTQWLNEIVMTDIAPLLEEYFFDDPYKQQKWTNKLLGDS [R349A] |
| disrupting interaction strength | MESIQPWIEKFIKQAQQQRSQSTKDYPTSYRNLRVKLSFGYGNFTSIPWFAFLGEGQEASNGIYPVILYYKDFDELVLAYGISDTNEPHAQWQFSSDIPKTIAEYFQATSGVYPKKYGQSYYACSQKVSQGIDYTRFASMLDNIINDYKLIFNSGKSVIPPMSKTESYCLEDALNDLFIPETTIETILKRLTIKKNIILQGPPGVGKTFVARRLAYLLTGEKAPQRVNMVQFHQSYSYEDFIQGYRPNGVGFRRKDGIFYNFCQQAKEQPEKKYIFIIDEINRANLSKVFGEVMMLMEHDKRGENWSVPLTYSENDEERFYVPENVYIIGLMNTADRSLAVVDYALRARFSFIDIEPGFDTPQFRNFLLNKKAEPSFVESLCQKMNELNQEISKEATILGKGFRIGHSYFCCGLEDGTSPDTQWLNEIVMTDIAPLLEEYFFDDPYKQQKWTNKLLGDS [R348A] |
| with no effect | MESIQPWIEKFIKQAQQQRSQSTKDYPTSYRNLRVKLSFGYGNFTSIPWFAFLGEGQEASNGIYPVILYYKDFDELVLAYGISDTNEPHAQWQFSSDIPKTIAEYFQATSGVYPKKYGQSYYACSQKVSQGIDYTRFASMLDNIINDYKLIFNSGKSVIPPMSKTESYCLEDALNDLFIPETTIETILKRLTIKKNIILQGPPGVGKTFVARRLAYLLTGEKAPQRVNMVQFHQSYSYEDFIQGYRPNGVGFRRKDGIFYNFCQQAKEQPEKKYIFIIDEINRANLSKVFGEVMMLMAHDKRGENWSVPLTYSENDEERFYVPENVYIIGLMNTADRSLAVVDYALRRRFSFIDIEPGFDTPQFRNFLLNKKAEPSFVESLCQKMNELNQEISKEATILGKGFRIGHSYFCCGLEDGTSPDTQWLNEIVMTDIAPLLEEYFFDDPYKQQKWTNKLLGDS [E298A] |

Reference: IntAct's records for PubMed 31296862
